Our source for the Kd values is PMC8939794.

As a reminder, the Kd is the equilibrium constant for the complex coming apart.

For this experiment, the target named is His6-Tagged vimentin (Novus Biologicals) (UniProt P08670). The experiment in a line: MST; His6-vimentin labelled with RED-tris-NTA 2nd Generation dye, kept at 20 nM; V-domain protein titrated from 40 uM to 0.117 uM; premium capillaries, Monolith NT.115 Pico, 20% excitation power; 'estimated' Kd.
Sequence of UniProt P08670 (P08670 whole entry): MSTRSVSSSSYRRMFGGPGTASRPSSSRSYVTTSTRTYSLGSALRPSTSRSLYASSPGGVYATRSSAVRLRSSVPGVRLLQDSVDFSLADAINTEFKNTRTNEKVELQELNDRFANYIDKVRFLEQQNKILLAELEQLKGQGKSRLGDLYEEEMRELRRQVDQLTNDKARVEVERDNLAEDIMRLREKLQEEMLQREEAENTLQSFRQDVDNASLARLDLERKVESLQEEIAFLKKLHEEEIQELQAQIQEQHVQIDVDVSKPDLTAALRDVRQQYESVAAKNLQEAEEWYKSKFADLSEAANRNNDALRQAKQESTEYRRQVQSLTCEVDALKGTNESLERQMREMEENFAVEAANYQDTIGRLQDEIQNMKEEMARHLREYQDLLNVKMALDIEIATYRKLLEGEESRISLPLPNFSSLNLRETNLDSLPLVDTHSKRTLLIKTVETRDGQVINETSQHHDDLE

Regarding “BspC Gating Loop Mutant (GLM) V-domain, A250P/A259P (domain or fragment)”, the Kd is 41.9 µM.
The result for “BspC V-domain (variable domain of Group B streptococcal surface protein C, strain COH1) (domain or fragment)” reads 7.14 µM.
